The source of these data is article PMC3322389 (Structure(London, England:1993), 2012).

The series concerns the molecule itself. Briefly: AUC.

B1: Aureochrome1 LOV domain (AuLOV), residues 176-337 of V. frigida Aureochrome1 (domain or fragment, UniProt A8QW55 176-337, looked up)
chain: DSLIAQCSPEADTLLTDNPSKANRILEDPDYSLVKALQMAQQNFVITDASLPDNPIVYASRGFLTLTGYSLDQILGRNCRFLQGPETDPRAVDKIRNAITKGVDTSVCLLNYRQDGTTFWNLFFVAGLRDSKGNIVNYVGVQSKVSEDYAKLLVNEQNIEYK
Usually stoichiometry N stands for a count of units in the complex or per binding partner. Consider B1, for which the “stoichiometry N” value was 2.
